The values below come from PMC10505172, “Discovery and pharmacophoric characterization of chemokine network inhibitors using phage-display, saturation mutagenesis and computational modelling” (Nature Communications, 2023).

Ends that are not written are not given here.

One test deals with T1, CCL8 (human, UniProt P80075 24-99).
T1 sequence (looked up): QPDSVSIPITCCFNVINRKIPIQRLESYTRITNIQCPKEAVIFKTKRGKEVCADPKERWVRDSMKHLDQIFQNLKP
Briefly: cell-based or functional assay.

The next test has as its target CXCL6 (human, UniProt P80162 38-114). Kind of test: cell-based or functional assay.

For EEDDYTAYAPLTCYFT-NH2 [HD2 synthetic peptide], the “IC50 (median of biological replicates) of inhibition of CCL8-induced cell migration, chemokine at EC80” value with CCL8 turned out to be 1.9e-08 molar. Further, the “IC50 (median of biological replicates) of inhibition of CXCL6-induced cell migration, chemokine at EC80” value with CXCL6 is 1.4e-05 molar.
